Data published in patent US20070099822A1, “Regulation of tissue mineralization and phosphate metabolism by asarm peptides” (priority 2003, published 2007).
Entries after “also recorded” stand apart in the source; their conditions may differ.

Assays:
[1] = target: T1, full-length insect-expressed human-MEPE (Hu-MEPE) (human, UniProt Q9NQ76 18-525); assay: SPR (Biacore 3000), MEPE immobilized on CM5 at 3500 RU, secPHEX analyte, HBS-P-Zn (2 mM ZnCl2)
T1 construct: also called recombinant Hu-MEPE; Matrix Extracellular Phosphoglycoprotein
T1 sequence: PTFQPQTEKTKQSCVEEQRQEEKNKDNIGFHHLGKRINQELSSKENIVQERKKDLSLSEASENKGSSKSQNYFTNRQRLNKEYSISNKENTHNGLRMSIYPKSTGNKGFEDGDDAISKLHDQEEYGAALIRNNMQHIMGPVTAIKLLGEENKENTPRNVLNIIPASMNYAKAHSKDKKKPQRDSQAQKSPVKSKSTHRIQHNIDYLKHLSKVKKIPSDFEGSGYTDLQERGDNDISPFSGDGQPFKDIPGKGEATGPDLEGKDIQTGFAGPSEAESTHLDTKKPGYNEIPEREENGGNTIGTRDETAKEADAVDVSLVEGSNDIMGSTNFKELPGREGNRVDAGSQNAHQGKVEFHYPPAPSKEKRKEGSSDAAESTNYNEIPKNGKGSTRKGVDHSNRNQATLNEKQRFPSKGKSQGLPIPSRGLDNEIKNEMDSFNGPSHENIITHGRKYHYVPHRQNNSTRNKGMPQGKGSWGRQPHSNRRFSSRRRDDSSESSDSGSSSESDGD
Description: The experiments were performed at 25° C. using Biacore (Piscataway, N.J.) buffer (10 mM HEPES pH 7.4, 150 mM NaCl, 0.005% surfactant P20) supplemented with 2 mM ZnCl₂ (HBS-P-Zn) or without ZnCl₂ (HBS-P) as indicated. Injected samples also contained 2 mg/mL carboxymethyl-dextran to reduce non-specific association with the dextran matrix of the chip and a flow rate of 5 μL/min was used. The surfaces of research grade CM5 chips were activated by a 6 min injection of a solution containing 0.2M N-ethyl-N9-(dimethylaminopropyl) carbodiimide and 0.05M N-hydroxy-succinimide. MEPE, PHEX and IgG were immobilized on the same chip (ligands) in different individual flow-cells. Each chip contains four separate flow-cells, one cell was left blank as a negative control. The experiments were repeated on two different chips with 3500 RU (response-units) and 6000 RU of immobilized proteins respectively. The response unit or RU is a measure of surface charge density-oscillation and surface-plasmon-positron generation as detected by changes in incident refractive-index monitored by the Biacore optical unit. Specifically, 1000 RU unit equals a change of approximately 1 ng/mm² in surface protein concentration on the chip surface. After immobilization, each surface was blocked by a 6 min injection of 1 M ethanolamine at pH 8.5. […]

chip-immobilized MEPE = target: T2, chip-immobilized MEPE (Homo sapiens, UniProt Q9NQ76); assay: Surface plasmon resonance, secPHEX analyte on chip-immobilized MEPE; type: binding
T2 construct: Purified protein contained N-terminal amino acid residues APTFQ confirming cleavage of predicted nascent-MEPE signal-peptide; made in house; host or cells: Spodoptera frugiperda (sf9) insect cells, baculovirus
T2 sequence (Q9NQ76 18-525): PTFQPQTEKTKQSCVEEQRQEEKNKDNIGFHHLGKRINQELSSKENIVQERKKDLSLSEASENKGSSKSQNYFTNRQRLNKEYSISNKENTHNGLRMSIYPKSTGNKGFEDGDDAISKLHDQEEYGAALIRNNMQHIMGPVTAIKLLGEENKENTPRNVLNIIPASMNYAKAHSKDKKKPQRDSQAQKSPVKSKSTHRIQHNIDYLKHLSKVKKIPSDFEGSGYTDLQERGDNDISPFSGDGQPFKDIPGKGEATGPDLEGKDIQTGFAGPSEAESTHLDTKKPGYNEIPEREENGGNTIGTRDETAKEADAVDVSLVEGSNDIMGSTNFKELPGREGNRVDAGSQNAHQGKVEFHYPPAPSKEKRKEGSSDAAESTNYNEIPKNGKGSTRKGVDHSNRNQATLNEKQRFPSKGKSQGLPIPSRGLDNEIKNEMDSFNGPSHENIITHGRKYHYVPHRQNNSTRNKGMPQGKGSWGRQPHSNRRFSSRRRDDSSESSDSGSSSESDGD
Description: Surface Plasmon Resonance (SPR). A Biacore 3000 SPR instrument (Biacore, Piscataway, N.J.) in conjunction with CM5 research grade chips were used to conduct the Surface Plasmon Resonance (SPR) experiments, as previously described (Morgan, et al., A conserved clathrin assembly motif essential for synaptic vesicle endocytosis, J Neurosci 20(23):8667-8676, 2000; Morgan, et al., Uncoating of clathrin-coated vesicles in presynaptic terminals: Roles for Hsc70 and auxilin, Neuron 32(2):289-300, 200 1; Morgan, et al., Eps15 homology domain-NPF motif interactions regulate clathrin coat assembly during synaptic vesicle recycling, J Biol Chem 278(35):33583-33592, 2003). The experiments were performed at 25° C. using Biacore (Piscataway, N.J.) buffer (10 mM HEPES pH 7.4, 150 mM NaCl, 0.005% surfactant P20) supplemented with 2 mM ZnCl2 (HBS-P-Zn) or without ZnCl2 (HBS-P) as indicated. Injected samples also contained 2 mg/mL carboxymethyl-dextran to reduce non-specific association with the dextran matrix of the chip and a flow rate of 5 μL/min was used. The surfaces of research grade CM5 chips were activated by a 6 min injection of a solution containing 0.2M N-ethyl-N9-(dimethylaminopropyl) carbodiimide and 0.05M N-hydroxy-succinimide. MEPE, PHEX and IgG were immobilized on the same chip (ligands) in different individual flow-cells. Each chip contains four separate flow-cells, one cell was left blank as a negative control. The experiments were repeated on two different chips with 3500 RU (response-units) and 6000 RU of immobilized proteins respectively. The response unit or RU is a measure of surface charge density-oscillation and surface-plasmon-positron generation as detected by changes in incident refractive-index monitored by the Biacore optical unit. Specifically, 1000 RU unit equals a change of approximately 1 ng/mm^2 in surface protein concentration on the chip surface. After immobilization, each surface was blocked by a 6 min injection of 1 M ethanolamine at pH 8.5. […]

chip-immobilized secPHEX = target: T3, chip-immobilized secPHEX (Homo sapiens, UniProt P78562); assay: Surface plasmon resonance, secPHEX analyte on immobilized secPHEX; type: binding; conditions: 2 uM secPHEX
T3 construct: to generate a soluble, secreted form of PHEX; made in house; gift of Crine and Boileau, University of Montreal
T3 sequence (P78562 46-749 limits assumed): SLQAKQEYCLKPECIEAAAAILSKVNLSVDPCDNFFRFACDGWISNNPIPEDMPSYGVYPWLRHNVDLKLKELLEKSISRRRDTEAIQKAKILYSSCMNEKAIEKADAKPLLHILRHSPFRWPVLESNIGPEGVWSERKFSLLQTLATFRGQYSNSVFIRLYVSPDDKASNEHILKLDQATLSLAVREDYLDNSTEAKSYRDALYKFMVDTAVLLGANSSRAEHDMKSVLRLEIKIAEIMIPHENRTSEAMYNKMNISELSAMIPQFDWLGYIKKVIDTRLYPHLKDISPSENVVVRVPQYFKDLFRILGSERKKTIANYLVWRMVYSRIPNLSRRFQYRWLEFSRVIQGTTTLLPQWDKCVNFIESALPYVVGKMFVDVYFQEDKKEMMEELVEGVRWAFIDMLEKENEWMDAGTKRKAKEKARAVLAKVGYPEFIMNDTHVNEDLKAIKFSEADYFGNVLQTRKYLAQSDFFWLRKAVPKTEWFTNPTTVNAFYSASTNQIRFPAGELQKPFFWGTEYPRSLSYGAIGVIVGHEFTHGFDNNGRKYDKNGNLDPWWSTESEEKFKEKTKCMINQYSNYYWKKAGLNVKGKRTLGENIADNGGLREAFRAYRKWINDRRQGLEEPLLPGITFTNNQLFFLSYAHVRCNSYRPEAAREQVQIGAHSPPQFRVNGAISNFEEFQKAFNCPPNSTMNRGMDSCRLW
Description: (§1) Surface Plasmon Resonance (SPR). A Biacore 3000 SPR instrument (Biacore, Piscataway, N.J.) in conjunction with CM5 research grade chips were used to conduct the Surface Plasmon Resonance (SPR) experiments, as previously described (Morgan, et al., A conserved clathrin assembly motif essential for synaptic vesicle endocytosis, J Neurosci 20(23):8667-8676, 2000; Morgan, et al., Uncoating of clathrin-coated vesicles in presynaptic terminals: Roles for Hsc70 and auxilin, Neuron 32(2):289-300, 200 1; Morgan, et al., Eps15 homology domain-NPF motif interactions regulate clathrin coat assembly during synaptic vesicle recycling, J Biol Chem 278(35):33583-33592, 2003). The experiments were performed at 25° C. using Biacore (Piscataway, N.J.) buffer (10 mM HEPES pH 7.4, 150 mM NaCl, 0.005% surfactant P20) supplemented with 2 mM ZnCl2 (HBS-P-Zn) or without ZnCl2 (HBS-P) as indicated. Injected samples also contained 2 mg/mL carboxymethyl-dextran to reduce non-specific association with the dextran matrix of the chip and a flow rate of 5 μL/min was used. […] The response unit or RU is a measure of surface charge density-oscillation and surface-plasmon-positron generation as detected by changes in incident refractive-index monitored by the Biacore optical unit. […]

IgG = assay: Surface plasmon resonance, secPHEX analyte on immobilized IgG; type: binding; conditions: same chip
Description: as §1

B1: mammalian expressed human recombinant secreted PHEX (secPHEX) (enzyme, UniProt P78562 46-749, looked up)
chain: SLQAKQEYCLKPECIEAAAAILSKVNLSVDPCDNFFRFACDGWISNNPIPEDMPSYGVYPWLRHNVDLKLKELLEKSISRRRDTEAIQKAKILYSSCMNEKAIEKADAKPLLHILRHSPFRWPVLESNIGPEGVWSERKFSLLQTLATFRGQYSNSVFIRLYVSPDDKASNEHILKLDQATLSLAVREDYLDNSTEAKSYRDALYKFMVDTAVLLGANSSRAEHDMKSVLRLEIKIAEIMIPHENRTSEAMYNKMNISELSAMIPQFDWLGYIKKVIDTRLYPHLKDISPSENVVVRVPQYFKDLFRILGSERKKTIANYLVWRMVYSRIPNLSRRFQYRWLEFSRVIQGTTTLLPQWDKCVNFIESALPYVVGKMFVDVYFQEDKKEMMEELVEGVRWAFIDMLEKENEWMDAGTKRKAKEKARAVLAKVGYPEFIMNDTHVNEDLKAIKFSEADYFGNVLQTRKYLAQSDFFWLRKAVPKTEWFTNPTTVNAFYSASTNQIRFPAGELQKPFFWGTEYPRSLSYGAIGVIVGHEFTHGFDNNGRKYDKNGNLDPWWSTESEEKFKEKTKCMINQYSNYYWKKAGLNVKGKRTLGENIADNGGLREAFRAYRKWINDRRQGLEEPLLPGITFTNNQLFFLSYAHVRCNSYRPEAAREQVQIGAHSPPQFRVNGAISNFEEFQKAFNCPPNSTMNRGMDSCRLW
notes: Gift from Crine and Boileau; Used as SPR analyte and also immobilized as ligand; also called soluble mammalian expressed PHEX
For B1, the EC50 [1] was 553 nM, the “binding of secPHEX to MEPE in buffer lacking ZnCl2” value (chip-immobilized MEPE; HBS-P, secPHEX up to 10 uM) was “No interaction” and the “binding of secPHEX to MEPE” value (chip-immobilized MEPE; HBS-P-Zn buffer, saturation at 10 uM secPHEX) was “dose dependent”. The “Bmax of secPHEX binding to immobilized MEPE” value (chip-immobilized MEPE; MEPE 3500 RU) was 680 RU, the “interaction of secPHEX analyte with chip-immobilized secPHEX” value (chip-immobilized secPHEX) was “very low-level barely-detectable autologous-interaction” and the “interaction of secPHEX with control IgG” value (IgG) was “no significant signals; also recorded: No interaction”.
